The values below come from patent US20130122008A1, “Anti-IL 1- ß Antibody Combination Therapy” (NOVARTIS AG, priority 2009, published 2013).

Holding throughout (assay type): in vivo, human
Experiment [1] has as its system patients with type 2 diabetes mellitus (T2DM). Kind of experiment: Plasma glucose (fasting and OGTT) in clinical study of ACZ885 in T2DM patients on metformin. The protocol: The glucose assay is a hexokinase enzymatic method. Hexokinase catalyzes the phosphorylation of glucose with adenosine triphosphate. The glucose-6-phosphate is then oxidized to 6-phosphogluconate in the presence of NAD by the enzyme glucose-6-phosphate dehydrogenase. The amount of NADPH formed during the reaction is equivalent to the amount of D-glucose in the specimen and is measured photometrically by the increase in absorbance. The method has an inter-assay precision of 5.1-6.2% CV, and an intra-assay precision of 1.7-2.5% (determined by assaying 50 replicate assays of a sample then evaluating the coefficient of variation). The method is specific for glucose; no other carbohydrate is oxidized. A multi center, randomized, double blind, placebo-controlled, dose escalation study of the safety, tolerability, pharmacokinetics and pharmacodynamics of ACZ885 administered intravenously to patients with type 2 diabetes mellitus. The aim of the study is to compare the pharmacokinetic and pharmacodynamic effects of five doses (i.v. administration) of ACZ885 with placebo in patients with type 2 diabetes mellitus (T2DM). […] OGTT was administered at Baseline, 4 and 12 wk post-dose. The subsequent cohorts were included in the evaluation of pharmacodynamic, pharmacokinetis, pharmacogenomics and pharmacogenetics. • Cohort 2 (n=90; 1:1=ACZ885:Plb): received a single dose of ACZ885 (10 mg/kg) or placebo. • Cohort 3 (n=96) received a single dose of ACZ885 0.1, 0.3, 1.5 mg/kg or placebo (1:1:1:1). • Cohort 4 (n=30; 2:1=ACZ885:P1b) received a single dose of ACZ885 (0.03 mg/kg) or placebo. The study was designed to follow the patients for 24 weeks (168 days) after the single intravenous (i.v.) administration. An analysis of covariance (ANCOVA) with treatment as the classification variable and baseline as the covariate will be used for the comparison of treatments with respect to these parameters.

The test system is the same in experiment [2]. Nature of the experiment: High sensitive C-reactive protein (hsCRP) in clinical study of ACZ885 in T2DM patients on metformin. To be noted: single i.v. dose 0.03, 0.1, 0.3, 1.5 mg/kg, Week 4, on stable metformin. On the procedure: CRP is one of the “acute phase” proteins, the serum or protein levels of which rise during general, nonspecific response to infectious and non-infectious inflammatory processes such as rheumatoid arthritis, cardiovascular disease and peripheral vascular disease. CRP is synthesized in the liver and is present in trace amounts in serum or plasma. The C-Reactive Protein HS assay is performed at Covance Central Laboratory Services by immunonephelometry using the Siemens BNII Nephelometer. Polystyrene particles coated with monoclonal antibodies to CRP are agglutinated when mixed with samples containing CRP. The intensity of the scattered light in the nephelometer depends on the CRP content of the sample and therefore the CRP concentration can be determined versus dilutions of a standard of a known concentration The method has an inter-assay precision of 2.1-5.7% CV, and an intra-assay precision of 2.3-4.4% (determined by assaying 10 replicate assays of a sample then evaluating the coefficient of variation). CRP accuracy is evaluated by comparison with College of American Pathologists (CAP) Cardiac Risk Survey. A multi center, randomized, double blind, placebo-controlled, dose escalation study of the safety, tolerability, pharmacokinetics and pharmacodynamics of ACZ885 administered intravenously to patients with type 2 diabetes mellitus. […]

Experiment [3] has the same test system. Kind of experiment: Glucagon (OGTT) in clinical study of ACZ885 in T2DM patients on metformin. As to conditions: dose escalation, Week 4 post-dose, versus placebo. The text has this: Glucagon is a hormone secreted by the alpha cells of the pancreatic islets of Langerhans. It is secreted in response to hypoglycemia and increases the blood glucose. As serum glucose levels rise in the blood, glucagon is inhibited by a negative feedback mechanism. The Millipore/LINCO Glucagon Radioimmunoassay kit utilized I^125 labeled glucagon and glucagon antiserum to determine the level of glucagon in plasma by the double antibody/PEG technique. The antibody is specific for pancreatic glucagon. A standard curve is set up with increasing concentrations of standard unlabeled antigen and from this curve the amount of antigen in unknown samples can be calculated. The method has an inter-assay precision of 7.3-13.5% CV, and an intra-assay precision of 4.0-6.8% (determined by assaying replicate assays then evaluating the coefficient of variation). Accuracy is evaluated by comparison with College of American Pathologists (CAP) Ligand. A multi center, randomized, double blind, placebo-controlled, dose escalation study of the safety, tolerability, pharmacokinetics and pharmacodynamics of ACZ885 administered intravenously to patients with type 2 diabetes mellitus. The aim of the study is to compare the pharmacokinetic and pharmacodynamic effects of five doses (i.v. administration) of ACZ885 with placebo in patients with type 2 diabetes mellitus (T2DM). […]

“Also recorded” adds a separate entry of the source.

B1: ACZ885: anti-IL1β antibody, also referred to as Canakinumab; variable domains shown in SEQ ID NO:1 (VH) and SEQ ID NO:2 (VL) (antibody, V domains shown)
VH: QVQLVESGGGVVQPGRSLRLSCAASGFTFSVYGMNWVRQAPGKGLEWVAIIWYDGDNQYYADSVKGRFTISRDNSKNTLYLQMNGLRAEDTAVYYCARDLRTGPFDYWGQGTLVTVSS
VL: EIVLTQSPDFQSVTPKEKVTITCRASQSIGSSLHWYQQKPDQSPKLLIKYASQSFSGVPSRFSGSGSGTDFTLTINSLEAEDAAAYYCHQSSSLPFTFGPGTKVDIK
modifications: homo sapiens
As to B1, the “OGTT glucose AUC0-4 h / post-prandial glucose” value in experiment [1] (dose escalation, Week 4 post-dose, versus placebo) was “Positive trends consistent with dose escalation; also recorded: positive trend at Week 4 post-dose, albeit not statistically significant”. The “postprandial glucose (OGTT) compared to placebo” value in experiment [1] (single dose 10 mg/kg, 4 weeks) is reported as “significant reduction”. Moreover, the “peak plasma glucose (PPG) following OGTT” value in experiment [1] (single i.v. dose 10 mg/kg, Week 4, versus placebo in change from baseline, 10 mg/kg) is recorded as “statistically significant; also recorded: reduction”; in experiment [1] (single i.v. dose 10 mg/kg, Week 12) it was “maintained”. For the same molecule, the “fasting plasma glucose (FPG)” value in experiment [1] (single i.v. dose 10 mg/kg, Week 4 post-dose, 10 mg/kg) is “decrease”. The “plasma AUC glucose following OGTT” value in experiment [1] (single i.v. dose 10 mg/kg, four weeks after treatment, on stable metformin) is on record as “statistically significant decreased”. The “fasting plasma glucose (FPG), course of effect” value in experiment [1] (single i.v. dose 10 mg/kg, from Week 4 to Week 12) is given as “attenuated”. In addition, the “high-sensitivity C-reactive protein (hsCRP), dose response” value in experiment [2] is “linear reduction (dose proportional); also recorded: linear decreasing trend”. Further, the “OGTT glucagon AUC0-4 h” value in experiment [3] was “Positive trends consistent with dose escalation; also recorded: positive trend at Week 4 post-dose, albeit not statistically significant”.
